Experimental data from paper PMC6402988.

Biological target: ADI-15946 (human)
Assay: BLI

In the case of “EBOV GP cleaved (EBOV GPCL) (from UniProt Q05320 33-650) (domain or fragment)”, the Kd is reported as less than 1 pM and the koff is reported as less than 1e-07 s⁻¹.
